Experimental data taken from patent US20240226321A1 (ANJARIUM BIOSCIENCES, published 2024).

Target: T1, FcRn of the Lumit FcRn Binding Immunoassay (Promega) (UniProt P55899 24-297; P61769 21-119, limits assumed)
T1 construct: Bought kit reagent ('split FcRn/Tracer'); also called split FcRn
Test: Lumit FcRn Binding Immunoassay (Promega), serial dilution of EVs competing with the kit's Tracer for FcRn, luminescence as fraction of max signal
Procedure: A Lumit™ FcRn Binding Immunoassay (Promega) assay was performed with purified EVs described in Example 1 and native Hek293 EVs. […] Detection reagent was added and luminescence was detected on a plate reader.

T1 sequence (P55899 24-297 limits assumed, form in doubt, chain 1 of 2): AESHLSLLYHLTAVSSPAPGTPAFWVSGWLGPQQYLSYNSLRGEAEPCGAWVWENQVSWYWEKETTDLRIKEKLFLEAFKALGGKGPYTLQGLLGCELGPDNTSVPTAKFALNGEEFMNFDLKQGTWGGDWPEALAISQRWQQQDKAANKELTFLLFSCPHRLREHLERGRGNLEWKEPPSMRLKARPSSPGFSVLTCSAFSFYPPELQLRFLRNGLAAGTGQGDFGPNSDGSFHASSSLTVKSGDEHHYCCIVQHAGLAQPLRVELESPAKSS
T1 sequence (P61769 21-119 limits assumed, form in doubt, chain 2 of 2): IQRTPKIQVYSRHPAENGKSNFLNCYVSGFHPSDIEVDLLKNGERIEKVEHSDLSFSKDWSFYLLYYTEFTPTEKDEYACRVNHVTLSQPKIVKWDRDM

B1: targeting monobody-linker1-modified monomeric Fc-linker2-EphB2 scaffold-linker3-turboluc fusion protein, displayed on purified EVs (Fc fusion)
chain: VSDVPRDLEVVAATPTSLLISWYYPFCAFYYRITYGETGGNSPVQEFTVPRSPDTATISGLKPGVDYTITVYAVTCLGSYSRPISINYRTGGGGSGGGGSGGAPEAAGGPSVFLFPPKPKDTLMISRTPEVTCVVVDVSHEDPEVKFNWYVDGVEVHNAKTKPREEQYNSTYRVVSVLTVLHQDWLNGKEYKCKVSNKALGAPIEKTISKAKGQPREPQVYTKPPSRDELTKNQVSLSCLVKGFYPSDIAVEWESNGQPENNYKTTVPVLDSDGSFRLASYLTVDKSRWQQGNVFSCSVMHEALHNHYTQKSLSLSPGGGSGGGSGGGSGGGSRKCPRIIQNGAIFQETLSGAESTSLVAARGSCIANAEEVDVPIKLYCNGDGEWLVPIGRCMCKAGFEAVENGTVCRGCPSGTFKANQGDEACTHCPINSRTTSEGATNCVCRNGYYRADLDPLDMPCTTIPSAPQAVISSVNETSLMLEWTPPRDSGGREDAVYNIICKSCGSGRGACTRCGDNVQYAPRQLGLTEPRIYASDLLAHTQYTFEIQAVNGVTDQSPFSPQFASVNITTNQAAPSAVSIMHQVSRTVDSITLSWSQPDQPNGVILDYELQYYEKELSEYNATAIKSPTNTVTVQGLKAGAIYVFQVRARTVAGYGRYSGKMYFQTMTEAEYQTEIQEKLPLIIGSSAAGLVFLIAVVVISIVCNRRGFERADSEYTDKLQHYTSGHMTPGMKIYIDPFTYEDPNEAVREFAKEIDISCVKIEQVIGAGEFGEVCSGHLKLPGKREIFVAIKTLKSGYTEKQRRDFLSEASIMGQFDHPNVIHLEGVVTKSTPVMIITEFMENGSLDSFLRQNDGQFTVIQLVGMLRGIAAGMKYLADMNYVHRDLAARNILVNSNLVCKVSDFGLSRFLEDDTSDPTYTSALGGKIPIRWTAPEAIQYRKFTSASDVWSYGIVMWEVMSFGERPYWDMTNQDVINAIEQDYRLPPPMDCPSALHQLMLDCWQKDRNHRPKFGQIVNTLDKMIRNPNSLKAMAPLSSGINLPLGGGEAEAERGKLPGKKLPLEVLIELEANARKAGCTRGCLICLSKIKCTAKMKKYIPGRCADYGGDKKTGQAGIVGAIVDIPEISGFKEMEPMEQFIAQVDRCADCTTGCLKGLANVKCSDLLKKWLPGRCATFADKIQSEVDNIKGLAGD
notes: also called EVs expressing the modified Fc domain
IC50 (read off the curve): ~0.2 nM
